Data taken from paper PMC3935945, “Insight into Highly Conserved H1 Subtype-Specific Epitopes in Influenza Virus Hemagglutinin” (PLoS ONE, 2014).

What was measured:
Assay in all cases: ELISA
[1] = target: T1, recombinant hemagglutinin (HA) of 2009 pandemic virus A/Korea/01/2009 (KR01) (Influenza A virus A/Korea/01/2009 (H1N1), strain); details: both partners purified
T1 construct: also called KR01 HA; H1N1 HA

[2] = target: T2, hemagglutinin (HA) of H1N1 A/Thailand/CU44/2006 (CU44) (Influenza A virus A/Thailand/CU44/2006 …, UniProt A7LI25, strain); details: both partners purified
T2 construct: also called CU44 HA

[3] = target: T3, HA from A/California/07/2009(H1N1) (Influenza A virus A/California/07/2009 …, UniProt C3W5X2, strain)
T3 construct: also called CA07

[4] = target: T4, HA from A/Brisbane/59/2007(H1N1) (Influenza A virus A/Brisbane/59/2007 …, UniProt D5F1Q8, strain)
T4 construct: also called BR59

[5] = target: T5, HA from A/California/04/2009(H1N1) (Influenza A virus A/California/04/2009 …, UniProt C3W5S1, strain)
T5 construct: also called CA04

Measured: binding result

B1: H1-specific monoclonal antibody GC0587 (antibody, V domains shown)
VH: VKLQQSGGGVVQPGGSLRLSCAASGFTFSDYDMSWIRQAPGKGLEWVSGILGGSERSYYRDSVKGRFTISRDNSRKTLYLQMNSLRAEDTAVYYCARHGSPGYTLYAWDYWGQGTMVTVSS
VL: DIQMTQSPASLAVSPGQRATITCRASESVSNYGINFINWFQQKPGQPPKLLIYTASNKGTGVPARFSGSGSGTDFTLTINPVEAEDTANYFCQQTKEVPYTFGGGTKLEIK
notes: copies: 2 + 2
binds: all assays above

B2: H1-specific monoclonal antibody GC0757 (antibody, V domains shown)
VH: VKLQESGAVVQPGGSLRLSCAASGFTGSDYDMSWIRQAPGKGLEWVSGILGGSERSYYRDSVKGRSTISRDNSRKTLYLEMNSLRAEDTAVYYCARHSWGAYVQYGMDGWGQGTTVTVSS
VL: DIQMTQSPASLAVSPGQRATITCRASESVSNYGINFINWFQQKPGQPPKLLIYTASNKGTGVPARFSGSGSGTDFTLTINPVEAEDTANYFCQQTKEVPYGTFGGTKLEIK
notes: copies: 2 + 2
binds: all assays above
